Measurements: patent publication US20190177366A1 (published 2019)
Bridge positions count the residues as written; N and C are the ends. Square brackets hold non-standard residues; d marks the D form.

B1: Compound 71 (peptide)
peptide: Ac-CRLPWNLQRAGLPC-NH2
modifications: disulfide 1-14
SMILES: CC(=O)N[C@H]1CSSC[C@@H](C(N)=O)NC(=O)[C@@H]2CCCN2C(=O)[C@H](CC(C)C)NC(=O)CNC(=O)[C@H](C)NC(=O)[C@H](CCCNC(=N)N)NC(=O)[C@H](CCC(N)=O)NC(=O)[C@H](CC(C)C)NC(=O)[C@H](CC(N)=O)NC(=O)[C@H](Cc2c[nH]c3ccccc23)NC(=O)[C@@H]2CCCN2C(=O)[C@H](CC(C)C)NC(=O)[C@H](CCCNC(=N)N)NC1=O
B2: Compound 72 (peptide)
peptide: Ac-CRLPWNLQAIGLPC-NH2
modifications: disulfide 1-14
SMILES: CC[C@H](C)[C@@H]1NC(=O)[C@H](C)NC(=O)[C@H](CCC(N)=O)NC(=O)[C@H](CC(C)C)NC(=O)[C@H](CC(N)=O)NC(=O)[C@H](Cc2c[nH]c3ccccc23)NC(=O)[C@@H]2CCCN2C(=O)[C@H](CC(C)C)NC(=O)[C@H](CCCNC(=N)N)NC(=O)[C@@H](NC(C)=O)CSSC[C@@H](C(N)=O)NC(=O)[C@@H]2CCCN2C(=O)[C@H](CC(C)C)NC(=O)CNC1=O
B3: Compound 73 (peptide)
peptide: Ac-CRLPWNLARIGLPC-NH2
modifications: disulfide 1-14
SMILES: CC[C@H](C)[C@@H]1NC(=O)[C@H](CCCNC(=N)N)NC(=O)[C@H](C)NC(=O)[C@H](CC(C)C)NC(=O)[C@H](CC(N)=O)NC(=O)[C@H](Cc2c[nH]c3ccccc23)NC(=O)[C@@H]2CCCN2C(=O)[C@H](CC(C)C)NC(=O)[C@H](CCCNC(=N)N)NC(=O)[C@@H](NC(C)=O)CSSC[C@@H](C(N)=O)NC(=O)[C@@H]2CCCN2C(=O)[C@H](CC(C)C)NC(=O)CNC1=O
B4: Compound 74 (peptide)
peptide: Ac-CRLPWNAQRIGLPC-NH2
modifications: disulfide 1-14
SMILES: CC[C@H](C)[C@@H]1NC(=O)[C@H](CCCNC(=N)N)NC(=O)[C@H](CCC(N)=O)NC(=O)[C@H](C)NC(=O)[C@H](CC(N)=O)NC(=O)[C@H](Cc2c[nH]c3ccccc23)NC(=O)[C@@H]2CCCN2C(=O)[C@H](CC(C)C)NC(=O)[C@H](CCCNC(=N)N)NC(=O)[C@@H](NC(C)=O)CSSC[C@@H](C(N)=O)NC(=O)[C@@H]2CCCN2C(=O)[C@H](CC(C)C)NC(=O)CNC1=O
B5: Compound 75 (peptide)
peptide: Ac-CRLPWALQRIGLPC-NH2
modifications: disulfide 1-14
SMILES: CC[C@H](C)[C@@H]1NC(=O)[C@H](CCCNC(=N)N)NC(=O)[C@H](CCC(N)=O)NC(=O)[C@H](CC(C)C)NC(=O)[C@H](C)NC(=O)[C@H](Cc2c[nH]c3ccccc23)NC(=O)[C@@H]2CCCN2C(=O)[C@H](CC(C)C)NC(=O)[C@H](CCCNC(=N)N)NC(=O)[C@@H](NC(C)=O)CSSC[C@@H](C(N)=O)NC(=O)[C@@H]2CCCN2C(=O)[C@H](CC(C)C)NC(=O)CNC1=O
B6: Compound 76 (peptide)
peptide: Ac-CRLPANLQRIGLPC-NH2
modifications: disulfide 1-14
SMILES: CC[C@H](C)[C@@H]1NC(=O)[C@H](CCCNC(=N)N)NC(=O)[C@H](CCC(N)=O)NC(=O)[C@H](CC(C)C)NC(=O)[C@H](CC(N)=O)NC(=O)[C@H](C)NC(=O)[C@@H]2CCCN2C(=O)[C@H](CC(C)C)NC(=O)[C@H](CCCNC(=N)N)NC(=O)[C@@H](NC(C)=O)CSSC[C@@H](C(N)=O)NC(=O)[C@@H]2CCCN2C(=O)[C@H](CC(C)C)NC(=O)CNC1=O
B7: Compound 77 (peptide)
peptide: Ac-CRLAWNLQRIGLPC-NH2
modifications: disulfide 1-14
SMILES: CC[C@H](C)[C@@H]1NC(=O)[C@H](CCCNC(=N)N)NC(=O)[C@H](CCC(N)=O)NC(=O)[C@H](CC(C)C)NC(=O)[C@H](CC(N)=O)NC(=O)[C@H](Cc2c[nH]c3ccccc23)NC(=O)[C@H](C)NC(=O)[C@H](CC(C)C)NC(=O)[C@H](CCCNC(=N)N)NC(=O)[C@@H](NC(C)=O)CSSC[C@@H](C(N)=O)NC(=O)[C@@H]2CCCN2C(=O)[C@H](CC(C)C)NC(=O)CNC1=O
B8: Compound 78 (peptide)
peptide: Ac-CRAPWNLQRIGLPC-NH2
modifications: disulfide 1-14
SMILES: CC[C@H](C)[C@@H]1NC(=O)[C@H](CCCNC(=N)N)NC(=O)[C@H](CCC(N)=O)NC(=O)[C@H](CC(C)C)NC(=O)[C@H](CC(N)=O)NC(=O)[C@H](Cc2c[nH]c3ccccc23)NC(=O)[C@@H]2CCCN2C(=O)[C@H](C)NC(=O)[C@H](CCCNC(=N)N)NC(=O)[C@@H](NC(C)=O)CSSC[C@@H](C(N)=O)NC(=O)[C@@H]2CCCN2C(=O)[C@H](CC(C)C)NC(=O)CNC1=O
B9: Compound 79 (peptide)
peptide: Ac-CALPWNLQRIGLPC-NH2
modifications: disulfide 1-14
SMILES: CC[C@H](C)[C@@H]1NC(=O)[C@H](CCCNC(=N)N)NC(=O)[C@H](CCC(N)=O)NC(=O)[C@H](CC(C)C)NC(=O)[C@H](CC(N)=O)NC(=O)[C@H](Cc2c[nH]c3ccccc23)NC(=O)[C@@H]2CCCN2C(=O)[C@H](CC(C)C)NC(=O)[C@H](C)NC(=O)[C@@H](NC(C)=O)CSSC[C@@H](C(N)=O)NC(=O)[C@@H]2CCCN2C(=O)[C@H](CC(C)C)NC(=O)CNC1=O
B10: Compound 80 (peptide)
peptide: Ac-CRLPWNLQRIGLGC-NH2
modifications: disulfide 1-14
SMILES: CC[C@H](C)[C@@H]1NC(=O)[C@H](CCCNC(=N)N)NC(=O)[C@H](CCC(N)=O)NC(=O)[C@H](CC(C)C)NC(=O)[C@H](CC(N)=O)NC(=O)[C@H](Cc2c[nH]c3ccccc23)NC(=O)[C@@H]2CCCN2C(=O)[C@H](CC(C)C)NC(=O)[C@H](CCCNC(=N)N)NC(=O)[C@@H](NC(C)=O)CSSC[C@@H](C(N)=O)NC(=O)CNC(=O)[C@H](CC(C)C)NC(=O)CNC1=O
B11: Compound 81 (peptide)
peptide: Ac-CRLPWNLQRIGGGC-NH2
modifications: disulfide 1-14
SMILES: CC[C@H](C)[C@@H]1NC(=O)[C@H](CCCNC(=N)N)NC(=O)[C@H](CCC(N)=O)NC(=O)[C@H](CC(C)C)NC(=O)[C@H](CC(N)=O)NC(=O)[C@H](Cc2c[nH]c3ccccc23)NC(=O)[C@@H]2CCCN2C(=O)[C@H](CC(C)C)NC(=O)[C@H](CCCNC(=N)N)NC(=O)[C@@H](NC(C)=O)CSSC[C@@H](C(N)=O)NC(=O)CNC(=O)CNC(=O)CNC1=O
B12: Compound 99 (peptide)
peptide: Ac-CRLPWNLQRIGL[dP]C-NH2
modifications: disulfide 1-14
SMILES: CC[C@H](C)[C@@H]1NC(=O)[C@H](CCCNC(=N)N)NC(=O)[C@H](CCC(N)=O)NC(=O)[C@H](CC(C)C)NC(=O)[C@H](CC(N)=O)NC(=O)[C@H](Cc2c[nH]c3ccccc23)NC(=O)[C@@H]2CCCN2C(=O)[C@H](CC(C)C)NC(=O)[C@H](CCCNC(=N)N)NC(=O)[C@@H](NC(C)=O)CSSC[C@@H](C(N)=O)NC(=O)[C@H]2CCCN2C(=O)[C@H](CC(C)C)NC(=O)CNC1=O

Each binder was assayed against T1, His-tagged, full-length PCSK9 (human, UniProt A8T644 31-152; Q8NBP7 153-692) (assay: TR-FRET competition; competitor EGF(A)-Fc on His-PCSK9).
T1 construct: Target protein of the PCSK9/EGF(A) TR-FRET assay (10 nM); also called His-PCSK9; proprotein convertase subtilisin/kexin type 9
T1 sequence (A8T644 31-152 limits assumed, chain 1 of 2): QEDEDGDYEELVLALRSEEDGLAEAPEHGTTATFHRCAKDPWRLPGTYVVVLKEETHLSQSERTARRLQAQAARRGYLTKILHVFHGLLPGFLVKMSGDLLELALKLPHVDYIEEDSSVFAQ
T1 sequence (A8T644 other isoform, or with tags, fused parts or gaps limits assumed, chain 2 of 2): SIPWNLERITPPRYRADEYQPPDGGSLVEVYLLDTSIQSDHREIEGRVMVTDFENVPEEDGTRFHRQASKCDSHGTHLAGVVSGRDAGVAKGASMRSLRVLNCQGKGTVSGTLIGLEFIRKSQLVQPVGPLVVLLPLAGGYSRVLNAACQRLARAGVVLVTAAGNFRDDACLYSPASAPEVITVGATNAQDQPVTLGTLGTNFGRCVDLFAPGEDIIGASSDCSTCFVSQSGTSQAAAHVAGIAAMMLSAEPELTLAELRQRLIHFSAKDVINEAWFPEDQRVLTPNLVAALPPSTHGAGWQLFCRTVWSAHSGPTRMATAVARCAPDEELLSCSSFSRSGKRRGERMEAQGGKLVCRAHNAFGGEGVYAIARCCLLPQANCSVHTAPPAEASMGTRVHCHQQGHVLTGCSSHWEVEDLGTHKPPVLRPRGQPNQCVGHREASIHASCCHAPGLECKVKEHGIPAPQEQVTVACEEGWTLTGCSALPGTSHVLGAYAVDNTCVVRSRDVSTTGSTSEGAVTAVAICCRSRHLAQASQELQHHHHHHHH

IC50, > 50 µM:
B1
B2
B3
B4
B5
B6
B7
B8
B9
B10
B11
B12
